Patent US20260217793A1 (Chugai, published 2026)
Residue numbers refer to the chain shown, from its start.

T1: mouse FcγRIII (mouse, UniProt P08508 31-215)
T1 sequence (looked up): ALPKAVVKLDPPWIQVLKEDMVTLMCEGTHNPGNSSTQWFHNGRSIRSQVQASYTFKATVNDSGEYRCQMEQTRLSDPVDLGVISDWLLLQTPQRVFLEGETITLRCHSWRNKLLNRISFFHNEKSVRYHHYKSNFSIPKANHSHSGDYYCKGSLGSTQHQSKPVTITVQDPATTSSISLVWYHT

T2: FcγRIIa type H extracellular domain with C-terminal His tag (human, UniProt P12318 34-217)
T2 sequence (looked up): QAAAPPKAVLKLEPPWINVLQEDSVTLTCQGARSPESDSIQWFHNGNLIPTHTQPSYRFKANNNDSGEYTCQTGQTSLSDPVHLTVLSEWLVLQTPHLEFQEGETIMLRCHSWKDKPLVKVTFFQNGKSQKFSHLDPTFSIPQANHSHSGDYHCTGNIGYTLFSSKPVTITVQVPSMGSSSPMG

T3: FcγRIIb extracellular domain with C-terminal His tag (human, UniProt P31994 43-217)
T3 sequence (looked up): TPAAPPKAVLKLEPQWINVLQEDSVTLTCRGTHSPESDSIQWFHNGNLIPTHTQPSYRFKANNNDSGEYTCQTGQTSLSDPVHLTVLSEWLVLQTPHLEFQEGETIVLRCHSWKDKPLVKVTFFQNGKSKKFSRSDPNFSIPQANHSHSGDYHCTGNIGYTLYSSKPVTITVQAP

T4: FcγRIIa type R extracellular domain with C-terminal His tag (human, UniProt P12318 34-217)
T4 sequence (looked up): T2 sequence (looked up) with H134R

T5: human FcγRIIb extracellular domain with C-terminal His tag (human, UniProt P31994 43-217)
T5 sequence (looked up): T3 sequence (looked up)

T6: human FcγRIIa type R (Arg131) extracellular domain with C-terminal His tag (human, UniProt P12318 34-217)
T6 sequence (looked up): T2 sequence (looked up) with H134R

T7: human FcγRIIa type H (His131) extracellular domain with C-terminal His tag (human, UniProt P12318 34-217)
T7 sequence (looked up): T2 sequence (looked up)

B1: VH3/L(WT)-mIgG1 (antibody)
heavy: QVQLQESGPGLVKPSETLSLTCAVSGHSISHDHAWSWVRQPPGEGLEWIGFISYSGITNYNPSLQGRVTISRDNSKNTLYLQMNSLRAEDTAVYYCARSLARTTAMDYWGEGTLVTVSSAKTTPPSVYPLAPGSAAQTNSMVTLGCLVKGYFPEPVTVTWNSGSLSSGVHTFPAVLQSDLYTLSSSVTVPSSTWPSETVTCNVAHPASSTKVDKKIVPRDCGCKPCICTVPEVSSVFIFPPKPKDVLTITLTPKVTCVVVDISKDDPEVQFSWFVDDVEVHTAQTQPREEQFNSTFRSVSELPIMHQDWLNGKEFKCRVNSAAFPAPIEKTISKTKGRPKAPQVYTIPPPKEQMAKDKVSLTCMITDFFPEDITVEWQWNGQPAENYKNTQPIMDTDGSYFVYSKLNVQKSNWEAGNTFTCSVLHEGLHNHHTEKSLSHSPGK
light: not shown
B2: IL6R-BP548/IL6R-L (antibody, human IgG1, kappa)
heavy: QVQLQESGPGLVKPSETLSLTCAVSGHSISHDHAWSWVRQPPGEGLEWIGFISYSGITNYNPSLQGRVTISRDNSKNTLYLQMNSLRAEDTAVYYCARSLARTTAMDYWGEGTLVTVSSASTKGPSVFPLAPSSKSTSGGTAALGCLVKDYFPEPVTVSWNSGALTSGVHTFPAVLQSSGLYSLSSVVTVPSSSLGTQTYICNVNHKPSNTKVDKKVEPKSCDKTHTCPPCPAPDLLGDDSVFLFPPKPKDTLMISRTPEVTCVVVDVSDEDGEVKFNWYVDGVEVHNAKTKPREEQDNSTYRVVSVLTVLHQDWLNGKEYKCKVSNKALPRPIEKTISKAKGQPREPQVYTLPPSRDELTKNQVSLTCLVKGFYPSDIAVEWESNGQPENNYKTTPPVLDSDGSFFLYSKLTVDKSRWQEGNVFSCSVMHEALHNHYTQESLSLSP
light: not shown
B3: IL6R-BP550/IL6R-L (antibody, human IgG1, kappa)
heavy: B2 heavy with D235E, V266I, S269G, D270E, E274D, E421Q
light: not shown
B4: IL6R-BP539/IL6R-L (antibody, human IgG1, kappa)
heavy: B2 heavy with D235E, V266I, S269G, D270E, E274P, E421Q
light: not shown
B5: IL6R-BP568/IL6R-L (antibody, human IgG1, kappa)
heavy: B2 heavy with D239G, V266I, S269A, D270E, D298Y, R332A, E421Q
light: not shown
B6: IL6R-BP533/IL6R-L (antibody, human IgG1, kappa)
heavy: B2 heavy with V266I, S269G, D270E, P398L, E421Q
light: not shown
B7: IL6R-BP558/IL6R-L (antibody, human IgG1, kappa)
heavy: B2 heavy with D235E, V266I, S269G, D270E, E274D, D298Y, E421Q
light: not shown
B8: IL6R-BP567/IL6R-L (antibody, human IgG1, kappa)
heavy: B2 heavy with D239G, V266I, S269A, D270E, R332A, E421Q
light: not shown

Tests used:
mouse FcγRIII = target: T1, mouse FcγRIII; test: SPR
[1] = target: FcγRIIIa type V extracellular domain with C-terminal His tag (human, UniProt P08637 17-208); test: SPR
Sequence of FcγRIIIa type V extracellular domain with C-terminal His tag (P08637 17-208 F176V): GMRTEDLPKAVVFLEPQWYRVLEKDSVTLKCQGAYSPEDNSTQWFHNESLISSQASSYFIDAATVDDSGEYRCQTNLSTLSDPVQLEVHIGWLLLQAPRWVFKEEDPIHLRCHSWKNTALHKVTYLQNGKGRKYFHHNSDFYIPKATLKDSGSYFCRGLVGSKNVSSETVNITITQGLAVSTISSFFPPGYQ

[2] = target: T2, FcγRIIa type H extracellular domain …; test: SPR
[3] = target: T3, FcγRIIb extracellular domain with …; test: ratio of SPR KDs, FcγRIIaR over FcγRIIb, same variant
[4] = target: T3, FcγRIIb extracellular domain with …; test: ratio of SPR KDs vs IL6R-B3/IL6R-L
[5] = target: T4, FcγRIIa type R extracellular domain …; test: ratio of SPR KDs vs IL6R-B3/IL6R-L
[6] = target: human FcγRIIIa type V (Val158) extracellular domain with C-terminal His tag (human, UniProt P08637 17-208); test: SPR
Sequence of human FcγRIIIa type V (Val158) extracellular domain with C-terminal His tag (P08637 17-208 F176V): as above

[7] = target: T5, human FcγRIIb extracellular domain with …; test: SPR
[8] = target: T6, human FcγRIIa type R (Arg131) …; test: SPR
[9] = target: T5, human FcγRIIb extracellular domain with …; test: SPR; remark: listed apart in the source
[10] = target: T5, human FcγRIIb extracellular domain with …; test: SPR; remark: listed apart in the source
[11] = target: human FcγRIa extracellular domain with C-terminal His tag (human, UniProt P12314 16-292); test: SPR
Sequence of human FcγRIa extracellular domain with C-terminal His tag (P12314 16-292): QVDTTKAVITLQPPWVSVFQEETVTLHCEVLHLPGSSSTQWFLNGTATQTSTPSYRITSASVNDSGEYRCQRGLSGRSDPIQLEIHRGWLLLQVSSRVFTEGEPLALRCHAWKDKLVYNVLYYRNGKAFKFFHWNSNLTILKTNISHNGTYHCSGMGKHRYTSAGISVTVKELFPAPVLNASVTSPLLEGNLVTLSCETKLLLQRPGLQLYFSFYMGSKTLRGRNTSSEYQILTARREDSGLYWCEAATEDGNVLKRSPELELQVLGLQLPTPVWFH

[12] = target: T5, human FcγRIIb extracellular domain with …; test: SPR; remark: listed apart in the source
[13] = target: T6, human FcγRIIa type R (Arg131) …; test: SPR; remark: listed apart in the source
[14] = target: T7, human FcγRIIa type H (His131) …; test: SPR

Binder | Kd [6] | KD (IIb) of parent polypeptide/KD (IIb) of altered polypeptide [7] | KD (IIaR) of parent polypeptide/KD (IIaR) of altered polypeptide [8] | KD (IIaH)/KD (IIb) [9] | KD (IIaR)/KD (IIb) [10] | Kd [11] | other results
B1 |  |  |  |  |  |  | Kd (mouse FcγRIII): 0.282 µM
B2 |  |  |  |  |  |  | Kd [1]: 34 µM; Kd [2]: 9.4 µM; KD (IIaR)/KD (IIb) [3]: 26.2; KD (IIb) of parent polypeptide/KD (IIb) of altered polypeptide [4]: 162; KD (IIaR) of parent polypeptide/KD (IIaR) of altered polypeptide [5]: 2.2
B3 | 48 µM | 406 | 3.3 | 656 |  |  | 
B4 | 34 µM | 369 | 3.4 |  | 38 |  | 
B5 | 25 µM | 211 | 1.6 | 748 | 46.1 | 0.00019 µM | Kd [12]: 0.015 µM; Kd [13]: 0.68 µM; Kd [14]: 11 µM
B6 | 27 µM | 756 |  |  | 28.3 |  | 
B7 | 36 µM |  |  |  |  | 0.015 µM | 
B8 | 39 µM | 225 | 1.2 | 1230 | 64.4 | 0.00021 µM | Kd [12]: 0.014 µM; Kd [13]: 0.89 µM; Kd [14]: 17 µM
